Experimental data taken from patent US20110262445A1 (CEPHALON AUSTRALIA, published 2011).

T1: human IL-23 (human, UniProt P29460 23-328; Q9NPF7 20-189)
T1 construct: Recombinant (Ebioscience); HIS-tagged in flow cytometry, biotinylated in some assays; also called hIL-23; rhIL-23
T1 sequence 1: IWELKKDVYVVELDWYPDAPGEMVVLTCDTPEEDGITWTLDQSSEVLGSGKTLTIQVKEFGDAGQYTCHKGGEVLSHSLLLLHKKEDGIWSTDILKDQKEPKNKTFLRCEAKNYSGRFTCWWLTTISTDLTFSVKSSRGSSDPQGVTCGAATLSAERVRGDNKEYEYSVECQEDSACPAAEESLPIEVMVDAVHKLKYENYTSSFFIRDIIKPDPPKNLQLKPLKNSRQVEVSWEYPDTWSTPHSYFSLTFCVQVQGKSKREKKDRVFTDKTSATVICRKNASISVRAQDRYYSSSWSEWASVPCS
T1 sequence 2: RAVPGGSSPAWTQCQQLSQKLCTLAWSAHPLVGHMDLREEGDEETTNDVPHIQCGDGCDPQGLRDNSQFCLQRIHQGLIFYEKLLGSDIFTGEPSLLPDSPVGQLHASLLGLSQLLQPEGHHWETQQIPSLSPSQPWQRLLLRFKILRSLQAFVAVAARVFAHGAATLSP

B1: scFv combo. # 12 (scFv)
scFv: QVQLVQSGAEVKKPGASVKVSCKASGYAFTDYYLHWVRQAPGQGLEWMGWIDPENGDTESAPKFQGRVSMTTDTSTSTAYMELRSLRSDDTAVYYCNANKELRYFDVWGQGTMVTVSSGGGGSGGGGSGGGGSEIVMTQSPATLSVSPGERATLSCRASQSISINLHWYQQKPGQAPRLLIYFASQSISGIPARFSGSGSGTEFTLTISSLQSEDFAVYYCQQSNSFPLTFGGGTKVEIKR
notes: scFv-80 with VH T28A, Y59S, T68S; not shown: proprietary C-terminal FLAG tag
B2: scFv combo. # 11 (scFv)
scFv: QVQLVQSGAEVKKPGASVKVSCKASGYTFTDYYLHWVRQAPGQGLEWMGWIDPENGDTESAPKFQGRVTMTTDTSTSTAYMELRSLRSDDTAVYYCNANKELRYFDVWGQGTMVTVSSGGGGSGGGGSGGGGSEIVMTQSPATLSVSPGERATLSCRAPQSISINLHWYQQKPGQAPRLLIYFASQSISGIPARFSGSGSGTEFTLTISSLQSEDFAVYYCQQSNSFPLTFGGGTKVEIKR
notes: scFv-80 with VH Y59S; VL S26P; not shown: proprietary C-terminal FLAG tag
B3: scFv combo. # 8 (scFv)
scFv: QVQLVQSGAEVKKPGASVKVSCKASGYTLTDYYLHWVRQAPGQGLEWMGWIDPENGDTESAPKFQGRVTMTTDTSTSTAYMELRSLRSDDTAVYYCNANKELRYFDVWGQGTMVTVSSGGGGSGGGGSGGGGSEIVMTQSPATLSVSPGERATLSCRASQSISINLHWYQQKPGQAPRLLIYFASQSISGIPARFSGSGSGTEFTLTISSLQSEDFAVYYCQQSNSFPLTFGGGTKVEIKR
notes: scFv-80 with VH F29L, Y59S; not shown: proprietary C-terminal FLAG tag
B4: scFv combo. # 6 (scFv)
scFv: QVQLVQSGAEVKKPGASVKVSCKASGYAFTDYYLHWVRQAPGQGLEWMGWIDPENGDTEHAPKFQGRVSMTTDTSTSTAYMELRSLRSDDTAVYYCNANKELRYFDVWGQGTMVTVSSGGGGSGGGGSGGGGSEIVMTQSPATLSVSPGERATLSCRASQSISINLHWYQQKPGQAPRLLIYFASQSISGIPARFSGSGSGTEFTLTISSLQSEDFAVYYCQQSNSFPLTFGGGTKVEIKR
notes: scFv-80 with VH T28A, Y59H, T68S; not shown: proprietary C-terminal FLAG tag
B5: scFv combo. # 2 (scFv)
scFv: QVQLVQSGAEVKKPGASVKVSCKASGYAFTDYYLHWVRQAPGQGLEWMGWIDPENGDTESAPKFQGRVTMTTDTSTSTAYMELRSLRSDDTAVYYCNANKELRYFDVWGQGTMVTVSSGGGGSGGGGSGGGGSEIVMTQSPATLSVSPGERATLSCRASQSISINLHWYQQKPGQAPRLLIYFASQSISGIPARFSGSGSGTEFTLTISSLQSEDFAVYYCQQSNSFPLTFGGGTKVEIKR
notes: scFv-80 with VH T28A, Y59S; not shown: proprietary C-terminal FLAG tag
B6: scFv combo. # 9 (scFv)
scFv: QVQLVQSGAEVKKPGASVKVSCKASGYTFTDYYLHWVRQAPGRGLEWMGWIDPENGDTESAPKFQGRVTMTTDTSTSTAYMELRSLRSDDTAVYYCNANKELRYFDVWGQGTMVTVSSGGGGSGGGGSGGGGSEIVMTQSPATLSVSPGERATLSCRASQSISINLHWYQQKPGQAPRLLIYFASQSTSGIPARFSGSGSGTEFTLTISSLQSEDFAVYYCQQSNSFPLTFGGGTKVEIKR
notes: scFv-80 with VH Q43R, Y59S; VL I55T; not shown: proprietary C-terminal FLAG tag
B7: scFv combo. # 10 (scFv)
scFv: QVQLVQSGAEVKKPGASVKVSCKASGYAFTDYYLHWVRQAPGQGLEWMGWIDPENGDTEHAPKFQGRVTMTTDTSTSTAYMELRSLRSDDTAVYYCNANKELRYFDVWGQGTMVTVSSGGGGSGGGGSGGGGSEIVMTQSPATLSVSPGERATLSCRASQSISINLHWYQQKPGQAPRLLIYFASQSISGIPARFSGSGSGTEFTLTISSLQSEDFAVYYCQQSNSFPLTFGGGTKVEIKR
notes: scFv-80 with VH T28A, Y59H; not shown: proprietary C-terminal FLAG tag

What was measured:
human IL-23 [1] = target: T1, human IL-23; assay: SPR, single 81 nM analyte, scFv via FLAG; LOD about 1 × 10^-5 s^-1
human IL-23 [2] = target: T1, human IL-23; assay: SPR, single 81 nM analyte, scFv via FLAG

Binder | koff (human IL-23 [1]) | Kd (human IL-23 [2]) | kon (human IL-23 [2])
B1 | < 1e-05 s⁻¹ | ≤ 0.016 nM | 220000 M⁻¹ s⁻¹
B2 | < 1e-05 s⁻¹ | ≤ 0.027 nM | 220000 M⁻¹ s⁻¹
B3 | < 1e-05 s⁻¹ | ≤ 0.0075 nM | 200000 M⁻¹ s⁻¹
B4 | < 1e-05 s⁻¹ | ≤ 0.041 nM | 230000 M⁻¹ s⁻¹
B5 | < 1e-05 s⁻¹ | ≤ 0.034 nM | 230000 M⁻¹ s⁻¹
B6 | < 1e-05 s⁻¹ | ≤ 0.027 nM | 220000 M⁻¹ s⁻¹
B7 | < 1e-05 s⁻¹ | ≤ 0.013 nM | 220000 M⁻¹ s⁻¹
